Assay results from the DeepSol protein solubility set.

Assay: soluble on expression in E. coli; label from the status in PepcDB or PDB records

| Sequence | soluble on expression in E. coli |
| --- | --- |
| MGSDKIHHHHHHENLYFQGMLIEIPNVFSKQEVSHLREQLDARRWIDGNQTSGAMATTRKRNQQLDKDDPVAVALGQQIMDRLLAHPQFVSAALPLQFYPPLFNRYQGGETFGYHIDNAIRSTPDGMIRTDLSATLFLSEPENYQGGELVIQDTYGQQSIKLSAGSLVLYPSSSLHQVTPVLSGERTAAFMWLQSMVRDEGQRRLLFQLDQSIQSLTAQTAAEQELFNLSGVYHNLLRRWSEL | soluble |
| MSHVFQIHSSQYKSPSQIPQGKVLVVGGGNSGMQIAVEFAKTHEVTMSISHPLTFLPLHFFRKSIFNWLEKLGLLYAEVSTKRGKWFQKRKDPIFGFEGKELIRNGAIQLQEKVVSASENNIMFQNGETYSAESIIWSTGFIQNYNWIEIEKVVNENGLPNHIKGISPVRGLYYIGLEHHHHHH | soluble |
| PLWVAPDGHIFLEAFSPVYKYAQDFLVAIAEPVCRPTHVHEYKLTAYSLYAAVSVGLQTSDITEYLRKLSKTGVPDGIMQFIKLCTVSYGKVKLVLKHNRYFVESCHPDVIQHLLQDPVIRECRLRNSEGEATELITETF | not soluble |
| ENKDNKGQIKTLDRDGQSITSYSFFAKNGDNVEKINVEVDQRQLSKDESLKLMENSRNKLVKLVLDKNKSANHIDKPLNLIREIPDTDISVTWDISDSRVLNYDGQIMSDVSQEGTIVNLTANMELNELTLSYTFAVNVFPRNYKGDIQEAVQEYINSQDSEQKKIFLPENISGEKISYYKSASK | soluble |
| MGFAFKRGISTPDLALITRQLATLVQSGMPLEECLRAVAEQSEKPRIRTMLVAVRAKVTEGYTLSDSLGDYPHVFDELFRSMVAAGEKSGHLDSVLERLADYAENRQKMRSKLQQASENLYFQ | soluble |
| MTEHRPAIELEEIPTLLERIEGYKGRSRLTQLAIKLNLLIFIRSSELRFARWSEIDFKSGLWVIPEQREAIKGIKHSDRGAKMRRKHYVPLCEQALVILGELKDLTYDVNGDDGFILTGCYDAMKPMSENTINKALRKMGYDTKTDLCGHGFRTLACSALIESGIWPEDVVELQMSHMEKNNVRAAYTHKAKHLEQRRLMLQWWADFLDANGSGMVRPFEFAQGATQYLEHHHHHH | not soluble |
| MTHPFEPFFDKDSKILILGSFPSIKSRQDGFYYQHPRNRFWPILETLFNAKLENITEQQAFLRKKHIALWDVLQSCKIKNSDDKTISYAKANDLNLILSQTKIQAIFTTGQSAYRFFVKFHPRLEAIALPSTSPANLNFSFEQLLQNYEIIKKFTKLEHHHHHH | not soluble |
| MSLTEILIVEDDDIIATLIERFLLQREYVVCAKVATGEDALYKAAEHLPDLVLMDINLAGKIDGITATKFITAIFHIPVIFLSGQDDETTLERATMAEPASFIIKPFNAKDLYSNIEIALHNDREGHHHHHH | not soluble |
| MKFETINQESIAKLMEIFYEKVRKDKDLGPIFNNAIGTSDEEWKEHKAKIGNFWAGMLLGEGDYNGQPLKKHLDLPPFPQEFFEIWLKLFEESLNIVYNEEMKNVILQRAQMIASHFQNMLYKYGGH | soluble |
| MGSDKIHHHHHHLEAGMNYGVWNNKGGVGKSFLSFTLALEHAHRHPERKILLADMCPQANLSEIILGGNGKGNANLEARLAQDKRKTIGGYFDERIASPHQVTGNETSYLIAASDYNQELPDNVYLLCGDPSLELQAQVINQIGSQTLPADAWKNVHMWLKDLINACARQLGREGTSVFIDCNPSFSAYTELAIVASDRLILPCSCDGSSARAVHNVENLVFDGSAYYGDKSFSKMCERFGMALPVIHSVVLNRSTLYNKDASKAFSAMFDEIKRTANDFYKRSPGSFVAGGPAFMVMPDNHSVAIVSSHLGKPLYAIKPGKYQVYEVNPQINPEPLNRYKEAIEGMEAVLL | not soluble |
| MGSDKIHHHHHHMSVLQELTKKKYSSLKTMFDDKYCPTFVYSILDQTIPGAVYADDQTFPKSFFIGTESGIYFIAGDQGNRDFHDFIAGYYEEQVKSSKRFTLFSSSDTWDSVLKPILKDDLNQMRRAAFSYQPKSFKKTLQLPKGLVLKRIDEDIISHSTAFNSAYYEEYWNSVSQFASKGFGFAVLHGNHVVSECTSIFLGHNRAEMDIYTLEEYRGLGLAYCVANRFIAFCMENGIVPSWDCDICNNSSIALAAKLGFKTVTEYTIYYSG | not soluble |
| MYKQILVPVDLNDQGFSDRAVELAVWQAKQANAEIHLLTVLPGIHMSMVATYFPKDAAAKMKQDVKQQLKAFASEHIDDEVIYKVHVAEGKAYATILDYAERLGADLIIMPSHKRSKINKVMLGSVASKVVEYSPINVMVVKPQG | not soluble |
| AAKGNMQCNIFVPAGTSKGKTTQTRLYGANCIEVEGTREDVALAAIESSVTHGSHYVGHNWHPLFIEGVKSIAYEIWEQCGYKAPDNFVVPAGNGSLLAGAYIGFSELLKGGEISKLPRLFGIQSESIQPFVQTFNNKEINITSEDTIAEGIKIKRSSRMNEIVQFVKETNGNFISVNEQQIQSALKEMGAQGYFIEPTSATAFAGIAQLIKTQEIKPDELTVGVVTGNGLKATNSIEHLINDMRG | not soluble |
| MKALITAADIKKASETPEKILTISEADLITPAARDAAKELGVQITAHPVSLPPTVAPSPAFSPASPLDPALVSRIIEEVMVCLNRSGSPAQPQKEADPGGLRIVKGNSLILEDFATGNPRDQIKIKELFNKKECPLYSAGIMALDKTSYSLTPARDELNYIIEGTLECCIDNRCYTAQAGDTLYIPAQAKIILTAADKVKLFYVC | not soluble |
| MSLRIAIVGAGALGLYYGALLQRSGEDVHFLLRRDYEAIAGNGLKVFSINGDFTLPHVKGYRAPEEIGPMDLVLVGLKTFANSRYEELIRPLVEEGTQILTLQNGLGNEEALATLFGAERIIGGVAFLCSNRGEPGEVHHLGAGRIILGEFLPRDTGRIEELAAMFRQAGVDCRTTDDLKRARWEKLVWNIPFNGLCALLQQPVNLILARDVSRKLVRGIMLEVIAGANAQGLATFIADGYVDDMLEFTDAMGEYKPSMEIDREEGRPLEIAAIFRTPLAYGAREGIAMPRVEMLATLLEQATGEGHHHHHH | soluble |
| MRHPDFPVPPRIDAFASWEASLRLAFARRGGRTVLASCRHRGPLRVQKALYPEGEGVCHVVLLHPPAGIAGGDVLDIGIELGAEAHAVLTTPGATKWYKSPGRTAMQQVAIRLDAGARLDWLPQENIVFNQARPVIDLTLDLAPGAAAIGWDITMLGRHAAGESWQEGRIAMHTRLRCEGQPLWIESTAFDAQSPVLGATTGMAGFHVVGTLWAVGAGATEALAETLAEQLPYRDDLRAGVTCLTQDAPGRPSVLLLRVLARRPEDARALLSQTWLALREPIHGVAGRPLRLWATLEHHHHHH | not soluble |
| MDFYYLPGSAPCRAVQMTAAAVGVELNLKLTNLMAGEHMKPEFLKLNPQHCIPTLVDEDGFVLWESRAIQIYLVEKYGAHDADLAERLYPSDPRRRAVVHQRLFFDVAVLYQRFAEYYEPQIFGQKVPVGDPGRLRSMEQALEFLNTFLEGEQYVAGGDDPTIADLSILATIATYEVAGYDLRRYENVQRWYERTSAIVPGADKNVEGAKVFGRYFTQK | soluble |
| MINKPNQFLNHLDGLKQHFSDYDSLQKSFKKYLSENQTELNNFFFNQFEKIIVLVKKKEFKTAQERCEEELATPYFSKPLVGFFQSLLQLINHDLIEQKNQQLANMSCEKIVEMVLSDYPNKLNLIHYLLAKEASFVNPNLLQRMTFVLTDLELLELKRFSFFKALNQIPAFKNHKVTYFNSKLKQKFVITLGEFAFPQTDKTKQFFQQLIKKVSQLFLKEPVSCEFAYEIIDALLVSFFPLHPNLEVNHLAKKIHQYVSKIVINEVVDLKDPTTKLIVDTLYEQLDRAIGEEN | soluble |
| MVIKDPRITRFRKMLAQATNYEQWKAAALELDFLEGNAEWKEDFASDLYHYELIYDRLSNLKQYRQQNDFERLKRALREGLHHDLGNMGNPALYTRSRVGTKHLIEEYITQVCESLDYLCDHPVPGFPVYDKLQFFRDTLTSYGRPTLLLSGGASLGMFHFGVIKALWEKGLLPQVIAGSSIGAIIAGILGIHTDAEIPEMLVPESHNLKAWKWRGLLSAMRGTGLMDQDTLRRCLRENIGDYTFEEAYQRTGRSINISVSPVQAHQKARLLCGYTSPYLLVWSAALASAAVPGIFPPVTLMKKDLNGNSLPYMPRLKFVDGSVVSDLPIERLMHLYDVNFTIVSQTNPHVVPFLTDRGQDEKLSLTNLPSHLLKSEVQFHGQGVFDYLRKRVRPEILRQLSGQMYTIMAQRYSGDVTIAPNYSLRHFRRMLANPSPEYVREMILEGERATWPKISMIRSHARISKTLERCVRRLKQQNRRAAELEHHHHHH | not soluble |
